B1: purified human PSA (shorter isoform) (enzyme, UniProt P55786-1 45-919, looked up)
chain: MPEKRPFERLPADVSPINYSLCLKPDLLDFTFEGKLEAAAQVRQATNQIVMNCADIDIITASYAPEGDEEIHATGFNYQNEDEKVTLSFPSTLQTGTGTLKIDFVGELNDKMKGFYRSKYTTPSGEVRYAAVTQFEATDARRAFPCWDEPAIKATFDISLVVPKDRVALSNMNVIDRKPYPDDENLVEVKFARTPVMSTYLVAFVVGEYDFVETRSKDGVCVRVYTPVGKAEQGKFALEVAAKTLPFYKDYFNVPYPLPKIDLIAIADFAAGAMENWGLVTYRETALLIDPKNSCSSSRQWVALVVGHELAHQWFGNLVTMEWWTHLWLNEGFASWIEYLCVDHCFPEYDIWTQFVSADYTRAQELDALDNSHPIEVSVGHPSEVDEIFDAISYSKGASVIRMLHDYIGDKDFKKGMNMYLTKFQQKNAATEDLWESLENASGKPIAAVMNTWTKQMGFPLIYVEAEQVEDDRLLRLSQKKFCAGGSYVGEDCPQWMVPITISTSEDPNQAKLKILMDKPEMNVVLKNVKPDQWVKLNLGTVGFYRTQYSSAMLESLLPGIRDLSLPPVDRLGLQNDLFSLARAGIISTVEVLKVMEAFVNEPNYTVWSDLSCNLGILSTLLSHTDFYEEIQEFVKDVFSPIGERLGWDPKPGEGHLDALLRGLVLGKLGKAGHKATLEEARRRFKDHVEGKQILSADLRSPVYLTVLKHGDGTTLDIMLKLHKQADMQEEKNRIERVLGATLLPDLIQKVLTFALSEEVRPQDTVSVIGGVAGGSKHGRKAAWKFIKDNWEELYNRYQGGFLISRLIKLSVEGFAVDKMAGEVKAFFESHPAPSAERTIQQCCENILLNAAWLKRDAESIHQYLLQRKASPPTV
B2: purified human SWELL1 (homo-hexamer) (natural protein)
chain: MIPVTELRYFADTQPAYRILKPWWDVFTDYISIVMLMIAVFGGTLQVTQDKMICLPCKWVTKDSCNDSFRGWAAPGPEPTYPNSTILPTPDTGPTGIKYDLDRHQYNYVDAVCYENRLHWFAKYFPYLVLLHTLIFLACSNFWFKFPRTSSKLEHFVSILLKCFDSPWTTRALSETVVEESDPKPAFSKMNGSMDKKSSTVSEDVEATVPMLQRTKSRIEQGIVDRSETGVLDKKEGEQAKALFEKVKKFRTHVEEGDIVYRLYMRQTIIKVIKFILIICYTVYYVHNIKFDVDCTVDIESLTGYRTYRCAHPLATLFKILASFYISLVIFYGLICMYTLWWMLRRSLKKYSFESIREESSYSDIPDVKNDFAFMLHLIDQYDPLYSKRFAVFLSEVSENKLRQLNLNNEWTLDKLRQRLTKNAQDKLELHLFMLSGIPDTVFDLVELEVLKLELIPDVTIPPSIAQLTGLKELWLYHTAAKIEAPALAFLRENLRALHIKFTDIKEIPLWIYSLKTLEELHLTGNLSAENNRYIVIDGLRELKRLKVLRLKSNLSKLPQVVTDVGVHLQKLSINNEGTKLIVLNSLKKMANLTELELIRCDLERIPHSIFSLHNLQEIDLKDNNLKTIEEIISFQHLHRLTCLKLWYNHIAYIPIQIGNLTNLERLYLNRNKIEKIPTQLFYCRKLRYLDLSHNNLTFLPADIGLLQNLQNLAITANRIETLPPELFQCRKLRALHLGNNVLQSLPSRVGELTNLTQIELRGNRLECLPVELGECPLLKRSGLVVEEDLFNTLPPEVKERLWRADKEQA

Assays:
Assay in all cases: cryo-EM structure
[1] = molecular target: B2
[2] = molecular target: B1
cryo-EM structure = molecular target: the molecule itself

| stoichiometry N [1] | binding result [2] | Binder | stoichiometry N (cryo-EM structure) |
| --- | --- | --- | --- |
| 3 PSA molecules per SWELL1 hexamer |  | B1 |  |
|  | binds | B2 | 6 |

Reference: publication PMC12698191 (Molecular cell, 2025)
